Experiment [1] addresses myc-mTOR^wt (human, UniProt P42345 1-2549). The experiment in a line: co-IP of myc-mTOR^wt with PLD2 fragments (FIG. 5). On the procedure:
(§1) After harvesting COS7 cells, total extracts were prepared by brief sonication in ice-cold lysis buffer (40 mM HEPES pH7.5, 120 mM NaCl, 1 mM EDTA, 10 mM pyrophosphate, 10 mM glycerophosphate, 50 mM NaF, 1.5 mM Na₃VO₄, 0.5% CHAPS, 1 mM PMSF, protease inhibitor cocktails). Clarified extracts were mixed with 2 μg of the respective antibodies. Then protein A-Sepharose beads were added to isolate the antibody complex. After four washings with lysis buffer, the final immunoprecipitates were washed once with wash buffer (50 mM HEPES pH7.5, 150 mM NaCl), and then subjected to SDS-PAGE using Hyperfilm (Amersham Pharmacia Biotech), nitrocellulose membranes (Watmann), Power supply (Amersham Pharmacia Biotech), Electrophoretic Transfer unit (Hoefer Scientific Instruments), and ECL™ (Amersham Pharmacia Biotech).

Experiment [2] addresses T1, phospholipase D2, wild type (PLD2^wt) (Homo sapiens, UniProt O14939 1-933).
T1 construct: also called recombinant PLD2; hPLD2
As to the kind of experiment: co-IP with anti-HA antibody of HA-raptor constructs with PLD2^wt (FIG. 11). As for the experimental part:
as §1

This note sets out measurements from patent publication US20100184636A1 (POSTECH ACADEMY INDUSTRY FOUNDATION, published 2010).

B1: PLD2^ΔN308 (enzyme)
chain: LAQGPGRDFLQLHRHDSYAPPRPGTLARWFVNGAGYFAAVADAILRAQEEIFITDWWLSPEVYLKRPAHSDDWRLDIMLKRKAEEGVRVSILLFKEVELALGINSGYSKRALMLLHPNIKVMRHPDQVTLWAHHEKLLVVDQVVAFLGGLDLAYGRWDDLHYRLTDLGDSSESAASQPPTPRPDSPATPDLSHNQFFWLGKDYSNLITKDWVQLDRPFEDFIDRETTPRMPWRDVGVVVHGLPARDLARHFIQRWNFTKTTKAKYKTPIYPYLLPKSTSTANQLPFTLPGGQCTTVQVLRSVDRWSAGTLENSILNAYLHTIRESQHFLYIENQFFISCSDGRTVLNKVGDEIVDRILKAHKQGWCYRVYVLLPLLPGFEGDISTGGGNSIQAILHFTYRTLCRGEYSILHRLKAAMGTAWRDYISICGLRTHGELGGHPVSELIYIHSKVLIADDRTVIIGSANINDRSLLGKRDSELAVLIEDTETEPSLMNGAEYQAGRFALSLRKHCFGVILGANTRPDLDLRDPICDDFFQLWQDMAESNANIYEQIFRCLPSNATRSLRTLREYVAVEPLATVSPPLARSELTQVQGHLVHFPLKFLEDESLLPPLGSKEGMIPLEVWT
notes: N-terminal 308 residues deleted, by analogy with ΔN184; also called ΔN308 PLD2
On to B1, for which, in experiment [1], the binding result is listed as “no binding”.

B2: HA-raptor^1020-1335 (other)
chain: NRNPGVPSVVKFHPFTPCIAVADKDSICFWDWEKGEKLDYFHNGNPRYTRVTAMEYLNGQDCSLLLTATDDGAIRVWKNFADLEKNPEMVTAWQGLSDMLPTTRGAGMVVDWEQETGLLMSSGDVRIVRIWDTDREMKVQDIPTGADSCVTSLSCDSHRSLIVAGLGDGSIRVYDRRMALSECRVMTYREHTAWVVKASLQKRPDGHIVSVSVNGDVRIFDPRMPESVNVLQIVKGLTALDIHPQADLIACGSVNQFTAIYNSSGELINNIKYYDGFMGQRVGAISCLAFHPHWPHLAVGSNDYYISVYSVEKRVR
notes: also called WD40 repeat region of raptor; not shown: HA tag
Take B2: the binding result in experiment [2] is on record as “binds”.
